Substitutions are numbered along the chain they refer to.
T1: GFP-NPH3 (NON-PHOTOTROPIC HYPOCOTYL 3) (Arabidopsis, UniProt Q9FMF5 1-746, phosphoserine at 744 after blue light irradiation (pS744 antibody), not in darkness; phosphorylated on multiple other sites in darkness (including S213, S223, S233, S237), dephosphorylated after blue …)
T1 construct: NPH3 (NON-PHOTOTROPIC HYPOCOTYL 3), Arabidopsis; S746 is the last residue; The state of the protein differs between dark and blue-light-treated seedlings; the two are kept apart by the assay; also called NPH3::GFP-NPH3; source: etiolated Arabidopsis nph3 seedlings expressing NPH3::GFP-NPH3; total protein extract, anti-GFP immunoprecipitated
T1 sequence (looked up): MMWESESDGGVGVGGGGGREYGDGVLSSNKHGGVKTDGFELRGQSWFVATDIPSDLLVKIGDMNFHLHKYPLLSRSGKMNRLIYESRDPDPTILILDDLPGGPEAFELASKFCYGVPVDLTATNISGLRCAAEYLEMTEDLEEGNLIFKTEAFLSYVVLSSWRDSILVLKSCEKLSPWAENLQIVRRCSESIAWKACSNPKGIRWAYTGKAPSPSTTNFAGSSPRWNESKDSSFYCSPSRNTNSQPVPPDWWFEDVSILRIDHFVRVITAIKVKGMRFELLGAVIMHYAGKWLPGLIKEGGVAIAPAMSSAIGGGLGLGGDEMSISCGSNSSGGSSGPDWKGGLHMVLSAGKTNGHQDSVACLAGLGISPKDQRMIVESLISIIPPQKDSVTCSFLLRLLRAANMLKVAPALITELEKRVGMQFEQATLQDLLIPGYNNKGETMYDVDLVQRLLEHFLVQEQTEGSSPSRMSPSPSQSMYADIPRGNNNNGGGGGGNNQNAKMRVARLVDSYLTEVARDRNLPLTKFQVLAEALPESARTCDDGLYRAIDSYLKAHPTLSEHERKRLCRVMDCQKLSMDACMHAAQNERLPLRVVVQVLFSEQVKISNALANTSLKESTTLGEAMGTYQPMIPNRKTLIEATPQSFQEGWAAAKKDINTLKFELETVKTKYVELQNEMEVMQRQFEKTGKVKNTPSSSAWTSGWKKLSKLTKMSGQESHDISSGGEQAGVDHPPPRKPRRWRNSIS

T2: GFP-NPH3 S746A (Arabidopsis, UniProt Q9FMF5 1-746, S746A, phosphoserine at 744 after blue light irradiation, at a reduced level (pS744 antibody))
T2 construct: NPH3, Arabidopsis; source: etiolated Arabidopsis nph3 seedlings expressing NPH3::GFP-NPH3 S746A; total protein extract, anti-GFP immunoprecipitated
T2 sequence (looked up): T1 sequence (looked up) with S746A

B1: GST-14-3-3 Lambda (natural protein, Arabidopsis, UniProt P48349 1-248, looked up)
chain: MAATLGRDQYVYMAKLAEQAERYEEMVQFMEQLVTGATPAEELTVEERNLLSVAYKNVIGSLRAAWRIVSSIEQKEESRKNDEHVSLVKDYRSKVESELSSVCSGILKLLDSHLIPSAGASESKVFYLKMKGDYHRYMAEFKSGDERKTAAEDTMLAYKAAQDIAAADMAPTHPIRLGLALNFSVFYYEILNSSDKACNMAKQAFEEAIAELDTLGEESYKDSTLIMQLLRDNLTLWTSDMQEQMDEA
notes: Arabidopsis 14-3-3 isoform Lambda (non-epsilon group member), expressed from pGEX-4T1 as a translational fusion with GST; source: E. coli BL21(DE3), purified (glutathione agarose)
B2: GST-14-3-3 Epsilon (natural protein, Arabidopsis, UniProt P48347 1-254, looked up)
chain: MENEREKQVYLAKLSEQTERYDEMVEAMKKVAQLDVELTVEERNLVSVGYKNVIGARRASWRILSSIEQKEESKGNDENVKRLKNYRKRVEDELAKVCNDILSVIDKHLIPSSNAVESTVFFYKMKGDYYRYLAEFSSGAERKEAADQSLEAYKAAVAAAENGLAPTHPVRLGLALNFSVFYYEILNSPESACQLAKQAFDDAIAELDSLNEESYKDSTLIMQLLRDNLTLWTSDLNEEGDERTKGADEPQDEN
notes: Arabidopsis 14-3-3 isoform Epsilon (epsilon group member), expressed from pGEX-4T1 as a translational fusion with GST; source: E. coli BL21(DE3), purified (glutathione agarose)

Key:
14-3-3 Epsilon = 14-3-3 Epsilon (UniProt P48347); experiment: far-western of anti-GFP IP, GST-14-3-3 probe; details: reference: wild-type GFP-NPH3; sites S744
[1] = target: T1, GFP-NPH3 (NON-PHOTOTROPIC HYPOCOTYL 3); experiment: far-Western, overlay or dot blot; GFP-Trap immunoprecipitates from etiolated seedlings irradiated with 20 µmol m^-2 s^-1 blue light for 15 min (L), separated by SDS-PAGE, on PVDF; probed with purified GST-14-3-3 or GST alone at 1 µM in 20 mM HEPES-KOH pH 7.7, 75 mM KCl, 0.1 mM EDTA, 1 mM DTT, 2% milk, 0.04% Tween-20; detected with anti-GST; details: both partners purified
GFP-NPH3 S746A = target: T2, GFP-NPH3 S746A; experiment: as above; details: both partners purified

Molecule	binding against the reference (14-3-3 Epsilon)	binding result [1]	binding result (GFP-NPH3 S746A)
NPH3 (NON-PHOTOTROPIC HYPOCOTYL 3) (from UniProt Q9FMF5) S744A	lost	–	–
B1	–	binds	–
B2	–	binds	binds

From article PMC8531357, “Regulation of plant phototropic growth by NPH3/RPT2-like substrate phosphorylation and 14-3-3 binding” (Nature Communications, 2021)
